Measurements taken from patent publication CN101643510A.

How the values were obtained:
[1] = biological target: CD25人源化单抗 (Zenapax, ROCHE公司产品); test: sandwich ELISA, compared with the commercial anti-kappa capture antibody
[2] = biological target: CD25人源化单抗 (Zenapax, ROCHE公司产品); test: sandwich ELISA, 5G7 coated at 1 μg/ml, Zenapax titrated, HRP anti-human IgG Fc gamma detection

- 灵敏度 fold against 市售抗体 [1]: 100 fold
- 灵敏度 (detection sensitivity) [2]: 0.01 ng/mL
B1: 重组抗CD25人源化单克隆抗体的抗体 5G7 (antibody, V domains shown)
VH: EVKLEESGGGLEQPGGSMKLSCVASGFTFSNYWMNWVRQSPDKGLEWVAQIRWKSDNYATHYAESVKGRFSISRDDSKSSVYLQMNNLRVEDSGIYYCTGGGSYVAHWGQGTLVTVSA
VL: DIVLTQSPASLAVSLGQSVTVSCRASESVENYGTTLMQWYQQKPGQPPKLLIYGVSNVESGVPARFSGSGSGTDFTLNIHPVEEDDIAMYFCQQSRKVPWTFGGGTKLEIKR
